Data: PMC3386215 (Molecular Biology of the Cell, 2012)

Target: T1, His-Msb3 (S. cerevisiae, UniProt P48566 1-633)
T1 sequence: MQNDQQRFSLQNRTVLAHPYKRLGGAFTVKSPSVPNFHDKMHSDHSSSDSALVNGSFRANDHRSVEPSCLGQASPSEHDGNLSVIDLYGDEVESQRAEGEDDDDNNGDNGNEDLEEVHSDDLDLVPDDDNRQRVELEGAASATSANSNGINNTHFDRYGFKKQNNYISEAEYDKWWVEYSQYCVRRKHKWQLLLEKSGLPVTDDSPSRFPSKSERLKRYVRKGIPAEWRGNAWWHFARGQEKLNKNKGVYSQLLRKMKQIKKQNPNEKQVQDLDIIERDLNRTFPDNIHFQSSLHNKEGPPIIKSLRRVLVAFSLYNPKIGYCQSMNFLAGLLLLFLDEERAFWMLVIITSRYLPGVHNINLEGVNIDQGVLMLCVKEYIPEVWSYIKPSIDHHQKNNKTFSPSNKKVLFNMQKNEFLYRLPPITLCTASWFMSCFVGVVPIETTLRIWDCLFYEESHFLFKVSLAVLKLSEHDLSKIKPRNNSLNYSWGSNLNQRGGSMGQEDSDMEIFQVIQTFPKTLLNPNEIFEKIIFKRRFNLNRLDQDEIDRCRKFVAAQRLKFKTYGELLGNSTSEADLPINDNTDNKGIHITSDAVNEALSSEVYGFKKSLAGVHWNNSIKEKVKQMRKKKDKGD
Assay: pull-down

B1: GST-Vps21 (preloaded with GDP) (enzyme)
chain: MNTSVTSIKLVLLGEAAVGKSSIVLRFVSNDFAENKEPTIGAAFLTQRVTINEHTVKFEIWDTAGQERFASLAPMYYRNAQAALVVYDVTKPQSFIKARHWVKELHEQASKDIIIALVGNKIDMLQEGGERKVAREEGEKLAEEKGLLFFETSAKTGENVNDVFLGIGEKIPLKTAEEQNSASNERESNNQRVDLNAANDGTSANSACSC
  binding result: binds
